# T1: human mesothelin (human, UniProt Q13421)
# T1 chain: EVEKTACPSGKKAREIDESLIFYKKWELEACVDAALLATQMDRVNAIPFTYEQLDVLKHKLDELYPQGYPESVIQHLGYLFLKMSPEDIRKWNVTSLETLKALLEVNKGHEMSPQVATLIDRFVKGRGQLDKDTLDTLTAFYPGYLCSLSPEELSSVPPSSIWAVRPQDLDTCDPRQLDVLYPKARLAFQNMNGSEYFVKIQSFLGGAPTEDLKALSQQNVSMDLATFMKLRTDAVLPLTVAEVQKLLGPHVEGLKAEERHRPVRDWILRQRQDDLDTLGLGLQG
# Biological target: T1, human mesothelin
# Test: SPR
row,Kd [nM],Binder
1,8.9,"346C6-zu (antibody, V domains shown) VH: EVQLVESGGGLVQPGGSLRLSCAASGFSLSSYAMIWVRQAPGKGLEWIGTISTGGITYYASWAKGRFTISRDNSKNTLYLQMNSLRAEDTAVYYCARGGYAASSAYYLPYYFDLWGQGTLVTVSS VL: DIQMTQSPSSLSASVGDRVTITCQSSQSVYNNNNLAWYQQKPGKVPKLLIYLASTLASGVPSRFSGSGSGTDFTLTISSLQCEDAATYYCLGGCDDDADTFAFGGGTKVEIK"
2,6.5,"111B10-zu (antibody, V domains shown) VH: EVQLVESGGGLVQPGGSLRLSCAASGFSLNNYAMSWVRQAPGKGLEWIGSISTGGLAFYANWAKGRFTISRDNSKNTLYLQMNSLRAEDTAVYYCARNGGGSYIFYYFDLWGQGTLVTVSS VL: DIQMTQSPSSLSASVGDRVTITCQASQSISSYLSWYQQKPGKAPKLLIYSASTLASGVPSRFSGSGSGTDFTLTISSLQCEDAATYYCQSYYDIGTSTFGGGTKVEIK"

# Biological target: human folate receptor alpha (human)
# Sequence (P15328 whole entry): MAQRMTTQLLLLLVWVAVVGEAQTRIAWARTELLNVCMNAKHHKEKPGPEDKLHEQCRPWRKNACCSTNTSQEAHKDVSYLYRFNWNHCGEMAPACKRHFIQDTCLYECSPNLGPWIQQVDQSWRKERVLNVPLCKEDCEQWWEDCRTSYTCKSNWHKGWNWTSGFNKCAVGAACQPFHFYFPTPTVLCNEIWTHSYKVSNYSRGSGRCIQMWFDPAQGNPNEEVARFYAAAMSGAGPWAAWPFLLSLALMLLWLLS
# Test: ELISA
row,EC50 [µg/mL],Binder
1,0.0191,"MORAb003-DBCO-PEG2 eribulin (antibody, V domains shown) VH: EVQLVESGGGVVQPGRSLRLSCSASGFTFSGYGLSWVRQAPGKGLEWVAMISSGGSYTYYADSVKGRFAISRDNAKNTLFLQMDSLRPEDTGVYFCARHGDDPAWFAYWGQGTPVTVSS VL: DIQLTQSPSSLSASVGDRVTITCSVSSSISSNNLHWYQQKPGKAPKPWIYGTSNLASGVPSRFSGSGSGTDYTFTISSLQPEDIATYYCQQWSSYPYMYTFGQGTKVEIK"
2,0.0133,"MORAb003-DBCO-PEG4 eribulin (antibody, V domains shown) VH: EVQLVESGGGVVQPGRSLRLSCSASGFTFSGYGLSWVRQAPGKGLEWVAMISSGGSYTYYADSVKGRFAISRDNAKNTLFLQMDSLRPEDTGVYFCARHGDDPAWFAYWGQGTPVTVSS VL: DIQLTQSPSSLSASVGDRVTITCSVSSSISSNNLHWYQQKPGKAPKPWIYGTSNLASGVPSRFSGSGSGTDYTFTISSLQPEDIATYYCQQWSSYPYMYTFGQGTKVEIK"
3,0.0153,"MORAb003-ER1235638 (antibody, V domains shown) VH: EVQLVESGGGVVQPGRSLRLSCSASGFTFSGYGLSWVRQAPGKGLEWVAMISSGGSYTYYADSVKGRFAISRDNAKNTLFLQMDSLRPEDTGVYFCARHGDDPAWFAYWGQGTPVTVSS VL: DIQLTQSPSSLSASVGDRVTITCSVSSSISSNNLHWYQQKPGKAPKPWIYGTSNLASGVPSRFSGSGSGTDYTFTISSLQPEDIATYYCQQWSSYPYMYTFGQGTKVEIK"
4,0.016,"MORAb003-DBCO-PEG4 VCP eribulin (antibody, V domains shown) VH: EVQLVESGGGVVQPGRSLRLSCSASGFTFSGYGLSWVRQAPGKGLEWVAMISSGGSYTYYADSVKGRFAISRDNAKNTLFLQMDSLRPEDTGVYFCARHGDDPAWFAYWGQGTPVTVSS VL: DIQLTQSPSSLSASVGDRVTITCSVSSSISSNNLHWYQQKPGKAPKPWIYGTSNLASGVPSRFSGSGSGTDYTFTISSLQPEDIATYYCQQWSSYPYMYTFGQGTKVEIK"
5,0.015,"MORAb003-DBCO-ER1138856 (antibody, V domains shown) VH: EVQLVESGGGVVQPGRSLRLSCSASGFTFSGYGLSWVRQAPGKGLEWVAMISSGGSYTYYADSVKGRFAISRDNAKNTLFLQMDSLRPEDTGVYFCARHGDDPAWFAYWGQGTPVTVSS VL: DIQLTQSPSSLSASVGDRVTITCSVSSSISSNNLHWYQQKPGKAPKPWIYGTSNLASGVPSRFSGSGSGTDYTFTISSLQPEDIATYYCQQWSSYPYMYTFGQGTKVEIK"
6,0.013,"MORAb003-ER1236941 (antibody, V domains shown) VH: EVQLVESGGGVVQPGRSLRLSCSASGFTFSGYGLSWVRQAPGKGLEWVAMISSGGSYTYYADSVKGRFAISRDNAKNTLFLQMDSLRPEDTGVYFCARHGDDPAWFAYWGQGTPVTVSS VL: DIQLTQSPSSLSASVGDRVTITCSVSSSISSNNLHWYQQKPGKAPKPWIYGTSNLASGVPSRFSGSGSGTDYTFTISSLQPEDIATYYCQQWSSYPYMYTFGQGTKVEIK"
